Source: article PMC6753139, “TRIM66 reads unmodified H3R2K4 and H3K56ac to respond to DNA damage in embryonic stem cells” (Nature Communications, 2019)
Where no end group is shown, it is not given here. [ ]: non-standard residue; d: D form. Arg(Me2a) = CN(C)C(=N)NCCC[C@H](N)C(=O)O; Arg(Me) = CNC(=N)NCCC[C@H](N)C(=O)O

Legend:
TRIM66-WT965-1160 = target: T1, TRIM66-WT965-1160 (Homo sapiens, UniProt O15016); experiment: ITC, PHD-Bromodomain wild type; format: binding; settings: for Kd / KD: MicroCal PEAQ-ITC, 20 mM Tris, 100 mM NaCl, error from curve fit, Weak binding = ITC curves cannot be fitted reliably, N.D. = no detectable binding
T1 construct: ITC titration: titrating TRIM66-WT965-1160 with various histone H3 peptides; GST (N, cleaved yes); made in house; host or cells: Escherichia coli BL21 (DE3)
T1 sequence (O15016 1100-1295): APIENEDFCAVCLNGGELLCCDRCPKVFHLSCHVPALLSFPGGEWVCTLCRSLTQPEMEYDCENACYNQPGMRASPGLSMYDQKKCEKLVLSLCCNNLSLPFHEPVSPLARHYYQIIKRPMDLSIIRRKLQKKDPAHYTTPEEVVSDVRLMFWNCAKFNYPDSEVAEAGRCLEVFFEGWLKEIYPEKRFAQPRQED
Description: We next performed the glutathione S-transferase (GST) pulldown assays of the TRIM66-WT965-1160 against the calf thymus histones to verify the histone-binding ability of TRIM66 PHD-Bromodomain. […] The PHD of TRIM66 shared a low conservation with those of ING4, PHF2, and BPTF, and lacked the conserved aromatic residues, which were necessary for binding H3K4me2/3[40]–[42] (Supplementary Fig. 2b). Nevertheless, TRIM66 was highly conserved in sequence and structure with the PHDs of TRIM24 and TRIM33 (Fig. 1c and Supplementary Fig. 2b), which were reported to bind H3K4me0[5],[6]; thus, we speculated that the PHD of TRIM66 could bind H3K4me0. To verify this hypothesis, we performed isothermal titration calorimetry (ITC)-based binding assays. […] Based on previous researches reporting the acetyl-lysine binding partners of Bromodomain[3]–[12], we chose a series of related peptides derived from H3 and H4, to test their interactions with TRIM66-WT965-1160 by ITC experiments. […] We further found the acetylated state of K56 was necessary for this binding (Supplementary Fig. 3b).
We next titrated the TRIM66-WT965-1160 with a series of R2-methylated H3 peptides through ITC assays. […] This finding was consistent with the structural observation that each NηH atom of the R2 formed a hydrogen bond with residues in protein (Fig. 2d).
The DNA fragments of human TRIM66_968-1160, TRIM24_824-1006, and TRIM33_882-1087 were amplified from a human bone marrow cDNA library using a PCR-based cloning strategy. The fragments of TRIM66-WT968-1160 were inserted into a pGEX-4T-1 plasmid (GE Healthcare). The fragments of TRIM24_824-1006 and TRIM33_882-1087 were ligated into a pET-SUMO-28a (+) plasmid (Novagen). The DNA fragments of TRIM66-MUT968-1160 and TRIM66-WT965-1160 with codon optimization were synthesized by General Biosystems (sequence was shown in Supplementary Methods) and inserted into a pGEXT-4T-1 plasmid (GE Healthcare). Mutants of TRIM66 PHD-Bromo were generated through PCR using the Mutant Best kit (Takara). The mutation of point mutant based on the codon-optimized DNA sequence of TRIM66-WT965-1160. All constructs were expressed in Escherichia coli BL21 (DE3). The construct of ASF1a1-156 inserted into a pRSFDuet plasmid (courtesy of Ruiming Xu Lab, Institute of Biophysics, Chinese Academy of Sciences) was expressed in E. coli BL21 (DE3) RIL. The construct of full-length H4 inserted into a pET3a plasmid was expressed in E. coli BL21 (DE3). The expression of full-length histone H3K56ac was performed in BL21 (DE3) cells transformed with pBK-AxcKRS3 and pET22b encoding H3 with amber codons at the K56 site[12]. The DNA fragment of full-length TRIM66 was synthesized by General Biosystems and ligated into fugw vector (Addgene). See the information of protein sequence in Supplementary Table 1.
The calorimetric experiments were performed at 25 °C using a MicroCal PEAQ-ITC. The proteins were dialyzed using a buffer containing 20 mM Tris and 100 mM NaCl at pH 7.5. Lyophilized peptides were dissolved in the same buffer and adjusted to pH 7.5 prior to use. Peptide concentrations were estimated from the quantitative NMR experiments[73],[74]. ITC measurements were performed via injection of 0.7–4 mM peptide into a cell containing 0.12 mM TRIM24-PHD-Bromo, 0.05 mM TRIM33 PHD-Bromo, and 0.05 or 0.11–0.15 mM TRIM66-PHD-Bromo (or its mutants). The ITC data were subsequently analyzed using the MicroCal PEAQ-ITC analysis software.

[1] = target: TRIM66-WT_(965-1160) (human) (UniProt O15016); experiment: ITC; 0.7–4 mM peptide injected into a cell with 0.05 or 0.11–[…] TRIM66-PHD-Bromo (or its mutants), 0.12 mM TRIM24-PHD-Bromo or 0.05 mM TRIM33 PHD-Bromo; 25 °C; 20 mM Tris, 100 mM NaCl, pH 7.5; MicroCal PEAQ-ITC; single measurement
[2] = target: TRIM66-WT_(965-1160) (PHD-Bromodomain) (human) (UniProt O15016); experiment: ITC; MicroCal PEAQ-ITC, 25 °C, 20 mM Tris, 100 mM NaCl, pH 7.5; 0.7-4 mM peptide injected into the cell with 0.12 mM TRIM24-PHD-Bromo, 0.05 mM TRIM33 PHD-Bromo, or 0.05 or 0.11-[…] TRIM66-PHD-Bromo (or its mutants); single measurement, errors from the fitting curve
[3] = target: TRIM66-GSGS_(968-1160) (PHD-Bromodomain) (human) (UniProt O15016); experiment: as above
[4] = target: T2, TRIM33_(882-1087) (PHD-Bromodomain) (human, UniProt Q9UPN9 882-1087); experiment: ITC; MicroCal PEAQ-ITC, 25 °C, 20 mM Tris, 100 mM NaCl, pH 7.5; 0.7-4 mM peptide injected into the cell with 0.12 mM TRIM24-PHD-Bromo, 0.05 mM TRIM33 PHD-Bromo, or 0.05 or 0.11-0.15 mM TRIM66-PHD-Bromo (or its mutants); single measurement, errors from the fitting curve; settings: both partners purified
T2 construct: also called TRIM33 PHD-Bromo; source: E. coli BL21 (DE3), purified (Ni column, SUMO protease, second Ni column, Superdex 75)
T2 sequence (looked up): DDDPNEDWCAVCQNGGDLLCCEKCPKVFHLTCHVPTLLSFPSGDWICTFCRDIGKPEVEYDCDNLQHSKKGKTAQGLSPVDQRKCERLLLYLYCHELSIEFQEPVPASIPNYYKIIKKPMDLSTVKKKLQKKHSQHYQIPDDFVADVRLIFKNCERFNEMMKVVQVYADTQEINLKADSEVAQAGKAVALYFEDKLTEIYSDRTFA

[5] = target: T3, TRIM24_(824-1006) (PHD-Bromodomain) (human, UniProt O15164 824-1006); experiment: as above; settings: both partners purified
T3 construct: TRIM24 PHD-Bromodomain, Homo sapiens, residues 824-1006 of UniProt O15164 (Isoform long); also called TRIM24-PHD-Bromo; source: E. coli BL21 (DE3), purified (Ni column, SUMO protease, second Ni column, Superdex 75)
T3 sequence (looked up): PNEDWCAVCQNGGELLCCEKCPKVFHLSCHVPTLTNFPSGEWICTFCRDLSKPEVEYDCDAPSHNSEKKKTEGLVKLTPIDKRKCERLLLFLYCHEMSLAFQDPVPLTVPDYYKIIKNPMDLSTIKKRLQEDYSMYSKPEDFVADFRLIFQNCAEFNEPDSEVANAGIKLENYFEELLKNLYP

TRIM24_(824-1006) = target: T4, TRIM24_(824-1006) (human, UniProt O15164 824-1006); experiment: ITC; 0.7–4 mM peptide injected into a cell with 0.05 or 0.11–0.15 mM TRIM66-PHD-Bromo (or its mutants), 0.12 mM TRIM24-PHD-Bromo or 0.05 mM TRIM33 PHD-Bromo; 25 °C; 20 mM Tris, 100 mM NaCl, pH 7.5; MicroCal PEAQ-ITC; single measurement; settings: both partners purified
T4 construct: TRIM24, human, PHD-Bromodomain, residues 824-1006, amplified from a human bone marrow cDNA library, in pET-SUMO-28a (+); also called TRIM24-PHD-Bromo; TRIM24 PHD-Bromodomain; source: E. coli BL21 (DE3), purified (Ni-chelating column, SUMO protease, second nickel column, Superdex 75)
T4 sequence (looked up): T3 sequence (looked up)

TRIM33_(882-1087) = target: T5, TRIM33_(882-1087) (human, UniProt Q9UPN9 882-1087); experiment: as above; settings: both partners purified
T5 construct: also called TRIM33 PHD-Bromo; TRIM33 PHD-Bromodomain; source: E. coli BL21 (DE3), purified (Ni-chelating column, SUMO protease, second nickel column, Superdex 75)
T5 sequence (looked up): T2 sequence (looked up)

[6] = ITC, 25 °C, pH 7.5, single measurement

## CNCCCC[C@H](NC(=O)[C@@H](NC(=O)[C@H](CCCNC(=N)N)NC(=O)[C@H](C)N)[C@@H](C)O)C(=O)N[C@@H](CCC(N)=O)C(=O)N[C@H](C(=O)N[C@@H](C)C(=O)N[C@@H](CCCNC(=N)N)C(=O)N[C@@H](CCCCN)C(=O)N[C@@H](CO)C(=O)N[C@H](C(=O)NCC(=O)O)[C@@H](C)O)[C@@H](C)O [H3K4me1]
TRIM66-WT965-1160; [6]
  Kd: 42.8 ± 2.45 µM

## CNC(=N)NCCC[C@H](NC(=O)[C@H](C)N)C(=O)N[C@H](C(=O)N[C@@H](CCCCN)C(=O)N[C@@H](CCC(N)=O)C(=O)N[C@H](C(=O)N[C@@H](C)C(=O)N[C@@H](CCCNC(=N)N)C(=O)N[C@@H](CCCCN)C(=O)N[C@@H](CO)C(=O)N[C@H](C(=O)NCC(=O)O)[C@@H](C)O)[C@@H](C)O)[C@@H](C)O [H3R2me1]
TRIM66-WT965-1160; [6]
  Kd: 72.4 ± 3.27 µM

## C[C@H](N)C(=O)N[C@@H](CCCNC(=N)N(C)C)C(=O)N[C@H](C(=O)N[C@@H](CCCCN)C(=O)N[C@@H](CCC(N)=O)C(=O)N[C@H](C(=O)N[C@@H](C)C(=O)N[C@@H](CCCNC(=N)N)C(=O)N[C@@H](CCCCN)C(=O)N[C@@H](CO)C(=O)N[C@H](C(=O)NCC(=O)O)[C@@H](C)O)[C@@H](C)O)[C@@H](C)O [H3R2me2a]
TRIM66-WT965-1160; [6]
  Kd: 110 ± 11.9 µM

## ARTKQTARKSTGGKALREIRRYQK(Ac)S [H3(1-15)-(48-57)K56ac]
TRIM66-WT965-1160; ITC, 25 °C, pH 7.5
  binding (in words): higher affinity than that for the individual peptides
TRIM66-WT965-1160; [6]
  -T△S: 6.91 kcal per mol
  N (stoichiometry): 1.17±0.01
  △H: -15.5±0.15 kcal per mol
TRIM66-WT965-1160; ratio of KD
  fold higher affinity than for the H3_1-12 peptide: 30 fold
  fold higher affinity than for the H3_48-57K56ac peptide: 210 fold

## H3K4me2: dimethylated H3K4 peptide
TRIM66-WT965-1160; [6]
  KD: Weak binding

## H3K4me3: trimethylated H3K4 peptide
TRIM66-WT965-1160; [6]
  KD: Weak binding

## H3_(1-12)K4me1 peptide (from UniProt P68431 2-13)
[1]
  Kd: 42.8 µM
[2]
  stoichiometry N: 1.1

## H3_(1-12)R2me1 peptide (from UniProt P68431 2-13)
[1]
  Kd: 72.4 µM
[2]
  stoichiometry N: 0.91

## H3_(1-12)R2me2a peptide (from UniProt P68431 2-13)
[1]
  Kd: 110 µM
[2]
  stoichiometry N: 0.98

## H3_(48-57)K56ac peptide (from UniProt P68431 49-58)
[1]
  Kd: 109 µM
[2]
  stoichiometry N: 1.07
[3]
  Kd: 127 µM
  stoichiometry N: 1.23

## H3_((1-15)-(48-57))K56ac peptide (from UniProt P68431 2-16; P68431 49-58)
[1]
  Kd: 0.52 µM
[2]
  stoichiometry N: 1.17

B1: H3_(1-12)R2me1 peptide (peptide, UniProt P68431 2-13, looked up)
peptide: A[Arg(Me)]TKQTARKSTG
notes: histone H3.1, Homo sapiens, residues 1-12; also called H3R2me1; source: synthetic peptide (GL Biochem)
[4]
  stoichiometry N: 0.8
[5]
  stoichiometry N: 0.93

B2: H3_(1-12)R2me2a peptide (peptide, UniProt P68431 2-13, looked up)
peptide: A[Arg(Me2a)]TKQTARKSTG
notes: histone H3, residues 1-12; also called H3R2me2a; asymmetrically dimethylated H3R2; source: synthetic peptide (GL Biochem, Shanghai)
TRIM24_(824-1006)
  Kd: 76.8 µM
TRIM33_(882-1087)
  Kd: 6.23 µM

B3: H3_(1-12)R2me2a peptide (peptide, UniProt P68431 2-13, looked up)
peptide: A[Arg(Me2a)]TKQTARKSTG
notes: histone H3.1, Homo sapiens, residues 1-12; also called H3R2me2a; source: synthetic peptide (GL Biochem)
[4]
  stoichiometry N: 1.06
[5]
  stoichiometry N: 0.86

B4: H3_(1-12)R2me1 peptide (peptide, UniProt P68431 2-13, looked up)
peptide: A[Arg(Me)]TKQTARKSTG
notes: histone H3, residues 1-12; also called H3R2me1; monomethylated H3R2; source: synthetic peptide (GL Biochem, Shanghai)
TRIM24_(824-1006)
  Kd: 72.7 µM
TRIM33_(882-1087)
  Kd: 5.1 µM
